The data set is described as follows: protein stability index of a GFP-peptide fusion (yeast GPS) (PSI 1-4); higher = more stable; sorted into four equal gates, so the index is relative within each strain. A digest of the protocol: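 Each library plasmid carries Cherry plus GFP with a tiled 17-residue yeast protein peptide fused downstream, and the pooled library was carried in yeast. Mid-log cultures in leucine-free medium were sorted into four equal gates by GFP/Cherry ratio. Reads from Illumina sequencing of PCR-amplified plasmids from each gate were assigned to strains by barcodes. Per peptide, the protein stability index was computed as the summed products of gate read frequency and gate number.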

± gives the uncertainty stated by the source.

GMIYNKLFVSKEHAPYT [FAS2] gave a protein stability index (doa10∆) of 3.12 ± 0.091, a protein stability index (pdr5∆) of 2.2 ± 0.092, a protein stability index (san1∆) of 2.24 ± 0.17 and a protein stability index (ubr1∆) of 2.41 ± 0.1.
Turning to GNDFKFNYQGDELVLNF [REC8], the protein stability index runs as follows: (doa10∆) 3.34 ± 0.078; (pdr5∆) 3.42 ± 0.083; (san1∆) 3.34 ± 0.053; (ubr1∆) 3.17 ± 0.047.
For GNLSKREIQIDAVLKIF [SRB8], in that order: 2.75 ± 0.065, 2.83 ± 0.063, 2.99 ± 0.063 and 2.68 ± 0.049.
On the same counts, the results for GNPYIELNQDRLGGDDL [SNF5] are 3.05 ± 0.092, 3.24 ± 0.098, 3.03 ± 0.11 and 3.27 ± 0.049.
As to GNSERPSAVAGFINQKN [YIL149C/MLP2], the protein stability index came to 3.31 ± 0.1 (doa10∆), 3.29 ± 0.12 (pdr5∆), 2.93 ± 0.097 (san1∆) and 3.03 ± 0.051 (ubr1∆).
For GNSKDDLLDMIQFGAKN [ISW2], in that order: 3.14 ± 0.2, 2.89 ± 0.16, 2.95 ± 0.11 and 2.92 ± 0.093.
On to GNTVVDGEGKVDSISLH [YCG1], for which the protein stability index is, setting by setting: (doa10∆) 3.54 ± 0.3; (pdr5∆) 3.53 ± 0.23.
For GNVLINDTLPDEISPEL [SNU114], the protein stability index is, setting by setting: (doa10∆) 2.99 ± 0.089; (pdr5∆) 2.77 ± 0.097; (san1∆) 3.32 ± 0.081; (ubr1∆) 2.71 ± 0.17.
On the same counts, the results for GPAAAKPMAFSNTTTHV [MTR3] are 3.06 ± 0.08, 3.28 ± 0.052, 3.39 ± 0.05 and 3.27 ± 0.036.
For GPHKGKAPRILSTGRKF [RPL18A], the protein stability index by setting is: (doa10∆) 2.81 ± 0.26; (san1∆) 3.21 ± 0.16; (ubr1∆) 2.92 ± 0.13.
With GPSATDPETTATQKESL [RGR1], the protein stability index by setting is: (doa10∆) 2.43 ± 0.062; (pdr5∆) 2.87 ± 0.071; (san1∆) 1.66 ± 0.11; (ubr1∆) 2.21 ± 0.048.
For the sequence GQAIVVHPDYLYGAITE [FAS2], the protein stability index stood at 2.09 ± 0.034 (doa10∆), 1.88 ± 0.047 (pdr5∆), 1.9 ± 0.048 (san1∆) and 1.79 ± 0.04 (ubr1∆).
For GQLLKDHLIIEPEEEKS [ARP9], in that order: 2.15 ± 0.084, 1.77 ± 0.066, 1.6 ± 0.096 and 1.71 ± 0.038.
In turn, GQLPQLPKLNLPKYQTI [SNF5] yielded a protein stability index (doa10∆) of 2.78 ± 0.062, a protein stability index (pdr5∆) of 2.67 ± 0.055, a protein stability index (san1∆) of 2.57 ± 0.074 and a protein stability index (ubr1∆) of 2.71 ± 0.047.
Regarding GQSSVKHEDFVEGISEV [RPT5], the protein stability index by setting is: (doa10∆) 3.7 ± 0.24; (ubr1∆) 3.41 ± 0.2.
Take GRDAFHLRVRVHPFHVL [RPL10]: the protein stability index (doa10∆) came to 1.7 ± 0.061, the protein stability index (pdr5∆) turned out to be 2 ± 0.077, the protein stability index (san1∆) is 1.86 ± 0.11 and the protein stability index (ubr1∆) came out at 2.09 ± 0.048.
For GRDKHALSLLYHLLNYD [SSN3], in that order: 2.91 ± 0.074, 2.92 ± 0.057, 2.94 ± 0.054 and 3.04 ± 0.064.
Consider GREGIWSKTIKARTNLH [RPC34], for which the protein stability index was 1.46 ± 0.12 (doa10∆), 1.58 ± 0.2 (pdr5∆) and 1.51 ± 0.29 (ubr1∆).
Regarding GRICRPLIIVSDGQSRV [RET1], the protein stability index reads like this: (doa10∆) 2.06 ± 0.045; (pdr5∆) 2.11 ± 0.037; (san1∆) 1.75 ± 0.059; (ubr1∆) 2.16 ± 0.038.
Take GRIPLHWSVSFQAHEIT [NAS6]: the protein stability index runs as follows: (doa10∆) 2.87 ± 0.057; (pdr5∆) 2.84 ± 0.056; (san1∆) 2.48 ± 0.073; (ubr1∆) 2.69 ± 0.037.
For GRKVLQKVQGESHIDSR [SIR4], in that order: 3.27 ± 0.14, 3.33 ± 0.079, 3.17 ± 0.09 and 3.27 ± 0.09.
As to GRNIGHPIIQDKEGNGV [RPB3], the protein stability index reads like this: (doa10∆) 3.52 ± 0.17; (pdr5∆) 3.24 ± 0.13; (san1∆) 3.04 ± 0.1; (ubr1∆) 3.15 ± 0.13.
On the same counts, the results for GRNRGRPNRRGPRNTEE [RPS2] are 3.38 ± 0.069, 3.24 ± 0.16, 3.58 ± 0.1 and 3.45 ± 0.083.
In the case of GRRISENGQRDLDRIAA [RPS19A], the protein stability index by setting is: (doa10∆) 3.76 ± 0.25; (pdr5∆) 3.42 ± 0.14; (san1∆) 3.4 ± 0.064; (ubr1∆) 3.45 ± 0.17.
For GSAELRNSYPASFYSVN [RPN3], in that order: 3.12 ± 0.21, 3.15 ± 0.11, 2.87 ± 0.059 and 3.55 ± 0.092.

For the origin of these results see the supplement of paper PMC9732359.
